{"source": "patent US20120041056A1", "about": "“NUCLEIC ACIDS SPECIFICALLY BINDING WITH HUMAN FACTOR VII/VIIA AND USES THEREOF” (LFB BIOTECHNOLOGIES, published 2012)", "key": {"[1]": {"molecular_target": "T1, Factor VII/VIIa (FVII HP, plasma-derived) (Homo sapiens, UniProt P08709;P08709 P08709:61-212,P08709:213-466)", "assay": "SPR; aptamer immobilized; 50 mM Tris, 50 mM NaCl, 10 mM CaCl2, 4 mM MgCl2, pH 7.4; about 1:1 stoichiometry (Example 4)", "conditions": "tags: none; purified from human plasma (98-99% purity); label: 5'-biotin"}, "[2]": {"molecular_target": "Factor VII, recombinant rabbit (Oryctolagus cuniculus, UniProt P98139;P98139 P98139:40-191,P98139:192-444)", "assay": "SPR; no binding to rabbit FVII/VIIa", "conditions": "label: 5'-biotin", "method": "Each sample was injected sequentially onto the same chip (solid substrate) containing the Mapt2 aptamer immobilized by means of a biotin-streptavidin interaction. Controls are obtained by injecting blanks containing only running buffer. Signals corresponding to the background noise are obtained by injecting the same samples onto the reference cell containing the immobilized some nucleic acids or other, these signals are subtracted from the signals obtained on the active cell. All the injections were carried out with a flow rate of 30 μl/min for 60 sec; after the injection, running buffer was injected onto the chip at an identical flow rate, for 120 sec. Elution buffer (15 mM EDTA) was then injected for 30 sec with a flow rate of 30 μl/min in order to detach the human or rabbit FVII from the aptamer. The chip makes it possible to study, in real time, the formation and the breaking of the interactions between the FVII HP and the immobilized aptamer by means of surface plasmon resonance (SPR). Binding to the immobilized aptamer is reflected by an increase in the signal, in resonance units (RU), recorded by the apparatus (FIG. 8). These analyses are carried out with the RPS Biacore T100 apparatus (GE).\nThe modeling of the interactions recorded is carried out using the Biaevaluation software (GE)."}, "[3]": {"molecular_target": "Factor VII, rabbit plasma (hydroxyapatite eluate) (Oryctolagus cuniculus, UniProt P98139;P98139 P98139:40-191,P98139:192-444)", "assay": "pulldown; affinity chromatography; 0.2% step yield in eluate, rabbit FVII not retained", "conditions": "tags: enriched from rabbit plasma; label: 5'-biotin", "method": "Gel equilibration: 0.050 M Tris-HCl, 0.010 M CaCl₂, 0.05 mM […], pH 7.5, elution: 0.050 M Tris-HCl, 0.010 M EDTA, pH 7.5, 36 μg are injected into the gel with a contact time of 10 minutes. The elution is carried out by injecting 2 ml of elution buffer.\nThe fractions are analyzed for their amidolytic activity by chromogenic assay using a Stago kit according to the supplier's recommendations (factor VIIa StatClot kit). The amidolytic activity is then converted to pg of FVII contained in said fraction."}, "[4]": {"molecular_target": "T1, Factor VII/VIIa (FVII HP, …)", "assay": "SPR; FVII immobilized; 10 mM CaCl2, 4 mM MgCl2, pH 7.4; eluted by 5 mM EDTA", "conditions": "tags: none; purified from human plasma (98-99% purity)", "method": "Each sample was injected sequentially onto the same chip (solid substrate) containing the immobilized human FVII. Controls were obtained by injecting blanks containing only running buffer. All the injections were carried out with a flow rate of 30 μl/min for 60 sec; after the injection, running buffer was injected onto the chip at an identical flow rate, for 120 sec. Elution buffer (5 mM EDTA) was then injected for 60 sec with a flow rate of 30 μl/min in order to detach the […]. The chip makes it possible to study, in real time, the formation and the breaking of the interactions between the immobilized human FVII and each of the aptamers Mapt2, Mapt3 and Mapt7 tested, by means of surface plasmon resonance (SPR). Binding to the immobilized human FVII is reflected by an increase in the signal, in resonance units (RU), recorded by the apparatus (FIG. 2). These analyses are carried out with the RPS Biacore T100 apparatus (GE). The modeling of the interactions recorded is carried out using the Biaevaluation software (GE)."}, "[5]": {"molecular_target": "T1, Factor VII/VIIa (FVII HP, …)", "assay": "SPR; FVII immobilized, aptamer 1 uM; much higher affinity than other family 2 members; 10 mM CaCl2, 4 mM MgCl2, pH 7.5", "conditions": "tags: none; purified from human plasma (98-99% purity)", "method": "A series of 27 nucleic aptamers of the invention (purity: 99%), having a length ranging from 43 to 66 nucleotides depending on the aptamers, were diluted in running buffer (50 mM Tris, 50 mM NaCl, 10 mM CaCl₂, 4 mM MgCl₂, pH 7.5) so as to obtain three aptamer samples. Each aptamer tested was injected at a final concentration of 1 μM in the running buffer.\nEach sample was injected sequentially onto the same chip (solid substrate) containing the immobilized human FVII. Controls are obtained by injecting blanks containing only running buffer. All the injections were carried out with a flow rate of 30 μl/min for 60 sec; after the injection, running buffer was injected onto the chip at an identical flow rate, for 120 sec. Elution buffer (5 mM EDTA) was then injected for 60 sec with a flow rate of 30 μl/min in order to detach the aptamer from the immobilized human FVII. The chip makes it possible to study, in real time, the formation and the breaking of the interactions between the immobilized human FVII and each of the aptamers tested, by means of surface plasmon resonance (SPR). Binding to the immobilized human FVII is reflected by an increase in the signal, in resonance units (RU), recorded by the apparatus (figure E1). These analyses are carried out with the RPS Biacore T100 apparatus (GE). The modeling of the interactions recorded is carried out using the Biaevaluation software (GE)."}, "[6]": {"molecular_target": "T1, Factor VII/VIIa (FVII HP, …)", "assay": "pulldown; affinity chromatography on streptavidin gel; CaCl2/MgCl2 buffer pH 7.5, eluted with 10 mM EDTA; Mapt2 core in low affinity group by SPR (Example 11)", "conditions": "tags: none; purified from human plasma (98-99% purity); label: 5'-biotin", "method": "Gel equilibration: 0.050 M Tris-HCl, 0.010 M CaCl₂, 0.05 mM MgCl₂, pH 7.5, elution: 0.020 M Tris-HCl, 0.010 M EDTA, pH 7.5, 240 μg of human plasma FVII purified to 98% is injected with a flow rate of 0.5 ml/min in equilibration buffer."}}}
{"binder": "Mapt2 (biotin-PEG) (ssDNA, 5' spacer of 4 PEG(C18) and terminal biotin) DNA: GGGAGATAGCCACGACCTATGCAGCCAGCCGCAGTGTAAGTGAATGCAGACATGGTCTAAGTGTCCAGGCTGTGCGAAAGC", "values": [{"measurement": "Kd", "setting": "[1]", "value": 99.9, "unit": "nM"}, {"measurement": "binding result", "setting": "[2]", "value": "no binding"}, {"measurement": "binding result", "setting": "[3]", "value": "no binding"}]}
{"binder": "Mapt2 (ssDNA) DNA: GGGAGATAGCCACGACCTATGCAGCCAGCCGCAGTGTAAGTGAATGCAGACATGGTCTAAGTGTCCAGGCTGTGCGAAAGC", "values": [{"measurement": "binding result", "setting": "[4]", "value": "binds"}]}
{"binder": "CCGCACGCTACGCGCATGAACCCGCGCACACGACTTGAAGTAGC (ssDNA)", "note": "[Mapt2.2 core sequence]", "values": [{"measurement": "binding result", "setting": "[5]", "value": "binds"}]}
{"binder": "CCGCACACCACGCGCATAATCCCGCGCACACGACTTGAAGTAGC (ssDNA, 5'-biotin without spacer)", "note": "[Mapt-2 core (5'-biotin)]", "values": [{"measurement": "binding result", "setting": "[6]", "value": "binds"}]}
{"binder": "CCGGAGACGCGCAGCTCCTATACATGCGCACATGACTTGAAGTC (ssDNA)", "note": "[Mapt3]", "values": [{"measurement": "binding result", "setting": "[4]", "value": "binds"}]}
{"binder": "AGTCTCCATGTTGCGAACCGAATGGTAAGGGGATCGTACACTAC (ssDNA)", "note": "[Mapt7]", "values": [{"measurement": "binding result", "setting": "[4]", "value": "binds"}]}
